Measured values reported in patent US20080305116A1 (published 2008).
Residue numbers refer to the chain shown, from its start. Names may count otherwise.

T1: human CD154, soluble antigen (human, UniProt P29965 116-261, limits assumed)
T1 construct: KinExA uses 'soluble antigen'; also called CD40 ligand; CD40L
T1 sequence (looked up): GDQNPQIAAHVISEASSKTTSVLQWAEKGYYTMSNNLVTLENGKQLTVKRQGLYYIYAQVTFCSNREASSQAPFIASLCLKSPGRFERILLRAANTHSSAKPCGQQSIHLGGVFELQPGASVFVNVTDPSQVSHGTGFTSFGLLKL

T2: CD154 on D1.1 cells (human, UniProt P29965 1-261)
T2 sequence (looked up): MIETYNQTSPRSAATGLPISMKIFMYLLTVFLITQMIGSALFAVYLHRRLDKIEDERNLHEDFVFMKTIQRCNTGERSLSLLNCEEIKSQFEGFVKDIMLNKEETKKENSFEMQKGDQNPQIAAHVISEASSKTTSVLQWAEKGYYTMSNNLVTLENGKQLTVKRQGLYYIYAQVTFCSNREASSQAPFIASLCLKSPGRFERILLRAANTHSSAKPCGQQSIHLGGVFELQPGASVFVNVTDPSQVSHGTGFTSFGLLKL

B1: 5c8 Fab Mutant #14 (light chain S26D/Q27E) (Fab, V domains shown)
VH: QVQLVQSGAEVVKPGASVKLSCKASGYIFTSYYMYWVKQAPGQGLEWIGEINPSNGDTNFNEKFKSKATLTVDKSASTAYMELSSLRSEDTAVYYCTRSDGRNDMDSWGQGTLVTVSS
VL: DIVLTQSPATLSVSPGERATISCRADERVSSSTYSYMHWYQQKPGQPPKLLIKYASNLESGVPARFSGSGSGTDFTLTISSVEPEDFATYYCQHSWEIPPTFGGGTKLEIK
notes: also called double mutant
B2: 5c8 Fab Mutant #25 (heavy T30H/Y33W; light S26D/Q27E/T33W) (Fab, V domains shown)
VH: B1 VH with T30H, Y33W
VL: B1 VL with T33W
B3: 5c8 Fab Mutant #19 (heavy S54N; light S26D/Q27E) (Fab, V domains shown)
VH: B1 VH with S54N
VL: B1 VL
B4: 5c8 Fab Mutant #24 (heavy T30H/Y33W; light S26D/Q27E) (Fab, V domains shown)
VH: B1 VH with T30H, Y33W
VL: B1 VL
B5: 5c8 Fab Mutant #18 (heavy T30H; light S26D/Q27E/T33W) (Fab, V domains shown)
VH: B1 VH with T30H
VL: B1 VL with T33W
B6: 5c8 Fab Mutant #27 (heavy Y33W/S54N; light S26D/Q27E/T33W) (Fab, V domains shown)
VH: B1 VH with Y33W, S54N
VL: B1 VL with T33W
B7: 5c8 Fab Mutant #15 (light chain S26D/Q27E/T33W) (Fab, V domains shown)
VH: B1 VH
VL: B1 VL with T33W
B8: 5c8 Fab Mutant #5 (light chain T33W) (Fab, V domains shown)
VH: B1 VH
VL: B1 VL with D26S, E27Q, T33W
B9: 5c8 Fab Mutant #23 (heavy Y33W; light S26D/Q27E) (Fab, V domains shown)
VH: B1 VH with Y33W
VL: B1 VL
B10: 5c8 Fab Mutant #22 (heavy T30H/Y33W/S54N; light S26D/Q27E/T33W) (Fab, V domains shown)
VH: B1 VH with T30H, Y33W, S54N
VL: B1 VL with T33W
B11: 5c8 Fab Mutant #26 (heavy T30H/S54N; light S26D/Q27E/T33W) (Fab, V domains shown)
VH: B1 VH with T30H, S54N
VL: B1 VL with T33W
B12: 5c8 Fab Mutant #28 (heavy Y33W/S54N; light S26D/Q27E) (Fab, V domains shown)
VH: B1 VH with Y33W, S54N
VL: B1 VL
B13: 5c8 Fab Mutant #1 (heavy chain T30H) (Fab, V domains shown)
VH: B1 VH with T30H
VL: B1 VL with D26S, E27Q
B14: 5c8 Fab Mutant #17 (heavy Y33W; light S26D/Q27E/T33W) (Fab, V domains shown)
VH: B1 VH with Y33W
VL: B1 VL with T33W
B15: 5c8 Fab Mutant #2 (heavy chain Y33W) (Fab, V domains shown)
VH: B1 VH with Y33W
VL: B1 VL with D26S, E27Q
B16: 5c8 Fab Mutant #21 (heavy T30H/Y33W/S54N; light S26D/Q27E) (Fab, V domains shown)
VH: B1 VH with T30H, Y33W, S54N
VL: B1 VL
B17: 5c8 Fab Mutant #6 (light chain S26D) (Fab, V domains shown)
VH: B1 VH
VL: B1 VL with E27Q
notes: also called Ser26Asp
B18: 5c8 Fab Mutant #16 (heavy T30H; light S26D/Q27E) (Fab, V domains shown)
VH: B1 VH with T30H
VL: B1 VL
B19: 5c8 Fab Mutant #7 (light chain Q27E) (Fab, V domains shown)
VH: B1 VH
VL: B1 VL with D26S
notes: also called Gln27Glu
B20: 5c8 Fab Mutant #4 (heavy chain S54N) (Fab, V domains shown)
VH: B1 VH with S54N
VL: B1 VL with D26S, E27Q
B21: 5c8 Fab Mutant #20 (heavy S54N; light S26D/Q27E/T33W) (Fab, V domains shown)
VH: B1 VH with S54N
VL: B1 VL with T33W
B22: 5c8 Fab Mutant #3 (light chain Y36W) (Fab, V domains shown)
VH: B1 VH
VL: B1 VL with D26S, E27Q, Y36W
B23: 5c8 Fab Mutant #13 (heavy chain N59L) (Fab, V domains shown)
VH: B1 VH with N59L
VL: B1 VL with D26S, E27Q
notes: also called Asn59Leu
B24: 5c8 Fab Mutant #10 (light chain Y54E) (Fab, V domains shown)
VH: B1 VH
VL: B1 VL with D26S, E27Q, Y54E
notes: also called Tyr54Glu
B25: 5c8 Fab Mutant #12 (heavy chain N59D) (Fab, V domains shown)
VH: B1 VH with N59D
VL: B1 VL with D26S, E27Q
notes: also called Asn59Asp
B26: 5c8 Fab Mutant #9 (light chain T33D) (Fab, V domains shown)
VH: B1 VH
VL: B1 VL with D26S, E27Q, T33D
B27: 5c8 Fab Mutant #8 (light chain S31V) (Fab, V domains shown)
VH: B1 VH
VL: B1 VL with D26S, E27Q, S31V
B28: 5c8 Fab Mutant #11 (heavy chain Y33F) (Fab, V domains shown)
VH: B1 VH with Y33F
VL: B1 VL with D26S, E27Q

target: T1, human CD154, soluble antigen; experiment: assay not named in the sentence (the paragraph speaks of competitive ELISA)

Row | fold higher affinity compared to the wildtype 5c8 Fab [fold] | Binder
1 | 9 | B1

target: T1, human CD154, soluble antigen; experiment: assay not given

Row | fold higher affinity compared to the wild type [fold] | Binder
2 | 25 | B2

target: T1, human CD154, soluble antigen; experiment: KinExA solution-phase equilibrium, Fab with soluble antigen

Row | Kd [nM] | Binder
3 | 0.041 | B1
4 | 0.065 | B3
5 | 0.052 | B4
6 | 0.054 | B5
7 | 0.052 | B6
8 | 0.044 | B7
9 | 0.158 | B8
10 | 0.053 | B9
11 | 0.055 | B10
12 | 0.063 | B11
13 | 0.077 | B12
14 | 0.307 | B13
15 | 0.023 | B14
16 | 0.169 | B15
17 | 0.101 | B16
18 | 0.142 | B17
19 | 0.07 | B18
20 | 0.012 | B2
21 | 0.081 | B19
22 | 0.298 | B20
23 | 0.044 | B21
24 | 0.42 | B22

target: T1, human CD154, soluble antigen; experiment: ELISA-based competitive binding assay; unlabeled Fab against biotin-labeled 5c8 Fab competitor

Row | ELISA fold-improvement over wildtype [fold] | Binder
25 | 5.6 | B1
26 | 8 | B4
27 | 5.4 | B5
28 | 0.01 | B23
29 | 3.8 | B7
30 | 5 | B8
31 | 5.2 | B9
32 | 0.06 | B24
33 | 2.3 | B13
34 | 5.9 | B14
35 | 7 | B15
36 | 2.6 | B17
37 | 0.13 | B25
38 | 5.8 | B18
39 | 0.22 | B26
40 | 5.6 | B2
41 | 0.02 | B27
42 | 6.3 | B19
43 | 2 | B20
44 | 0.05 | B28

target: T2, CD154 on D1.1 cells; experiment: cell-based or functional assay

Row | IC50 (ug/ml), T cell-dependent B cell activation assay [µg/mL] | Binder
45 | 0.287 | B1
46 | 0.131 | B14
47 | 0.165 | B2
